Source: patent publication CN113549147A

target: 柯萨奇A6型病毒(CVA6)病毒颗粒抗原, 毒株TW-2007-00141 (Coxsackievirus A6 (CVA6), strain TW-2007-00141); assay: cell-based or functional assay

| Binder | 中和效价 (最大稀释倍数 (可以抑制50%以上细胞孔病变)) |
| --- | --- |
| 单克隆抗体6C8 (antibody, V domains shown) VH: EVQLQQSGPELVRPGASVRISCKASGYSFTGYYMHWVKQSHVKSLEWIGRINPHNGVPNYNQNFKDKATLTVDKSSTTAYMELHSLTSEDSAVYFCVSGSSDFDYWGRGATLTVS VL: DIQMTQSPSSLSASLGERVTLTCRASQEIGAFLGWLQQKPDGIIKRLIYAASVLDSGVPKRFSGSRSGSDYSLTISSLESEDFADYYCLQYVSFPRTFGGGTKLEIK | 4096 |
| 单克隆抗体2B5 (antibody, V domains shown) VH: EVHLQQSGPELVKPGSSVKISCKASGYSFTGYYIHWVKQNHLKSLTWVGRINPHNGVADYDQILRGRAALTVDKSSTTAYLEFHSLTYEDSAVYFCVSGSNDFDYWGQGTPLTVS VL: DIQMTQSPSSLSASLGERVSLTCRASQEIRSFLGWLQQKPDGTIKRLIYAVSNLDSGVPKRFSGSRSGSDYSLTISSLESEDFADYYCLQYISFPRTFGGGTKLEIK | 4096 |
| 单克隆抗体4D6 (antibody, V domains shown) VH: EVQLQQSGPELVKPGASVKISCKASGYSFTGYYMHWVKQSHEKSLEWVGRINPHNGVADYNQILKGKAALTVDKSSTTAYMEFHSLTSEDSAVYYCVSGSSDFDYWGQGTPLTVS VL: DIQMTQSPSSLSASLGERVSLTCRASQEIRSFLGWLQQKPDGTIKRLIYAVSNLDSGVPKRFSGSRSGSDYSLTISSLESEDFADYYCLQYISFPRTFGGGTKLEIK | 8192 |
